What all share (conditions): remark: other sources report otherwise
In one assay the target is HLA-A*03:01 (human). The experiment in a line: REVEAL MHC-peptide binding assay, recombinant HLA.
For assay [1], the target named is HLA-A*11:01 (recombinant MHC class I molecule) (human). The experiment in a line: REVEAL MHC-peptide binding assay, recombinant HLA-A*11:01.
For assay [2], the target named is HLA-B*08:01 (recombinant MHC class I molecule) (human). The experiment in a line: REVEAL MHC-peptide binding assay, recombinant HLA-B*08:01.
Another assay addresses HLA-A*02:01 (human). The experiment in a line: REVEAL MHC-peptide binding assay, recombinant HLA.

On to WVQRGRKKL, for which, in the assay with HLA-A*03:01 (human), the In Vitro Score (% of positive control peptide) came to 4.9.

As for IFWVKRGLK, the In Vitro Score (score, % of positive control peptide) in assay [1] stood at 61.1; in assay [2] it was 58.3. As for WVQRGNKKL […, listing 1 of 2 here], the In Vitro Score (% of positive control peptide) with HLA-A*02:01 (human) is 4.3; with HLA-A*03:01 (human) it was 1.5. The matching figures for AFIIFWVSR: 4.5 and 0.3. With IIFWVARGR, the In Vitro Score (% of positive control peptide) in the assay with HLA-A*03:01 (human) was 18.6. As for IFWVKRGHK [Synthetic peptide …, listing 1 of 2 here], the In Vitro Score (score, % of positive control peptide) in assay [1] was 30.9; in assay [2] it was 3.2. For the molecule IFWVQRGAK […, listing 1 of 2 here], the In Vitro Score (% of positive control peptide) in the assay with HLA-A*02:01 (human) was determined as 11.7; in the assay with HLA-A*03:01 (human) it was 17. On the same counts, the results for VAFIIFWVS are 70.6 and 0.7. Regarding IFWVKRGNK […, listing 1 of 2 here], in the assay with HLA-A*02:01 (human), the In Vitro Score (% of positive control peptide) turned out to be 3.5.

For the molecule IFWVKRGAK […, listing 1 of 2 here], the values for the In Vitro Score (% of positive control peptide) with HLA-A*02:01 (human) and with HLA-A*03:01 (human) were 13.8 and 22, respectively. As for IFWVHRGRK, the In Vitro Score (% of positive control peptide) amounted to 7.1 with HLA-A*02:01 (human) and 37.8 in the assay with HLA-A*03:01 (human).

In the case of WVKRGAKKL [Synthetic peptide …, listing 1 of 2 here], the In Vitro Score (score, % of positive control peptide) in assay [1] was determined as 4.6; in assay [2], 34.1. For AFIIFWVAR, the In Vitro Score (% of positive control peptide) with HLA-A*02:01 (human) is 2.2; with HLA-A*03:01 (human), 0.5. As for WVQRGNKKL [Synthetic peptide …, listing 2 of 2 here], the In Vitro Score (score, % of positive control peptide) in assay [1] came out at 10.7; in assay [2], 32. For the molecule IIFWVLRGR, the In Vitro Score (% of positive control peptide) with HLA-A*03:01 (human) is 2.8. For the molecule VAFIIFWVK, the In Vitro Score (% of positive control peptide) with HLA-A*02:01 (human) was 0.7; in the assay with HLA-A*03:01 (human), 1.5. For WVKRGHKKL […, listing 1 of 2 here], the In Vitro Score (% of positive control peptide) with HLA-A*02:01 (human) worked out at 3.9; with HLA-A*03:01 (human), 1.4. Take IIFWVKRGA [Synthetic peptide …, listing 1 of 2 here]: the In Vitro Score (score, % of positive control peptide) in assay [1] amounted to 22.6; in assay [2], 0.9.

Regarding IFWVKRGAK [Synthetic peptide …, listing 2 of 2 here], the In Vitro Score (score, % of positive control peptide) in assay [1] came to 69.7; in assay [2] it was 2.2. For IFWVKRGNK [Synthetic peptide …, listing 2 of 2 here], the In Vitro Score (score, % of positive control peptide) in assay [1] came to 45.9; in assay [2] it was 0.1. Regarding IIFWVKRGN […, listing 1 of 2 here], in the assay with HLA-A*03:01 (human), the In Vitro Score (% of positive control peptide) came out at 4.3. For the molecule IIFWVKRGA […, listing 2 of 2 here], the results for the In Vitro Score (% of positive control peptide) with HLA-A*02:01 (human) and with HLA-A*03:01 (human) were 85.9 and 42.9, respectively.

Take FIIFWVHRG: the In Vitro Score (% of positive control peptide) came to 37.3 in the assay with HLA-A*02:01 (human) and 0 with HLA-A*03:01 (human).

Regarding IFWVSRGRK, the In Vitro Score (% of positive control peptide) with HLA-A*02:01 (human) turned out to be 1.3; with HLA-A*03:01 (human) it was 39.2.

In the case of IIFWVKRGN [Synthetic peptide …, listing 2 of 2 here], the In Vitro Score (score, % of positive control peptide) is 42.1 in assay [1] and 0.9 in assay [2]. For WVKRGNKKL [Synthetic peptide …, listing 1 of 2 here], the In Vitro Score (score, % of positive control peptide) in assay [1] is 4.1; in assay [2] it was 65.9. The matching figures for WVKRGSKKL: 11.8 and 56.1.

Consider IIFWVKRGS, for which the In Vitro Score (% of positive control peptide) worked out at 13.6 with HLA-A*02:01 (human) and 16.2 with HLA-A*03:01 (human).

IFWVQRGRK: the In Vitro Score (% of positive control peptide) turned out to be 6.1 with HLA-A*02:01 (human) and 36.7 with HLA-A*03:01 (human). For the molecule WVARGRKKL, in the assay with HLA-A*03:01 (human), the In Vitro Score (% of positive control peptide) was 1.3. With IIFWVQRGR, the figures for the In Vitro Score (% of positive control peptide) with HLA-A*02:01 (human) and with HLA-A*03:01 (human) were 5.8 and 18, respectively. IIFWVQRGA [Synthetic peptide …, listing 1 of 2 here]: the values for the In Vitro Score (score, % of positive control peptide) in assay [1] and in assay [2] were 56.5 and 0.2, respectively. As for IFWVKRGHK […, listing 2 of 2 here], in the assay with HLA-A*02:01 (human), the In Vitro Score (% of positive control peptide) was found to be 2.2.

Take IIFWVSRGR: the In Vitro Score (% of positive control peptide) in the assay with HLA-A*02:01 (human) came to 2.6; with HLA-A*03:01 (human) it was 25.3. With IIFWVKRGL, the In Vitro Score (score, % of positive control peptide) came to 32.4 in assay [1] and 1.7 in assay [2]. As to IFWVQRGNK […, listing 1 of 2 here], the In Vitro Score (% of positive control peptide) with HLA-A*02:01 (human) was 16.1; with HLA-A*03:01 (human), 23.2. Regarding IFWVQRGNK [Synthetic peptide …, listing 2 of 2 here], the In Vitro Score (score, % of positive control peptide) in assay [1] came to 67.5; in assay [2], 0.1.

On to IFWVKRGSK, for which the In Vitro Score (score, % of positive control peptide) in assay [1] was found to be 47.9; in assay [2], 1.2. Consider IIFWVHRGR, for which the results for the In Vitro Score (% of positive control peptide) with HLA-A*02:01 (human) and in the assay with HLA-A*03:01 (human) were 4.7 and 30.1, respectively. The matching figures for IIFWVKRGR: 1.7 and 24.3. The matching figures for IIFWVQRGA […, listing 2 of 2 here]: 95.3 and 2.7.

Consider IFWVARGRK, for which the results for the In Vitro Score (% of positive control peptide) in the assay with HLA-A*02:01 (human) and with HLA-A*03:01 (human) were 1 and 53.7, respectively. The matching figures for WVKRGAKKL […, listing 2 of 2 here]: 4.7 and 4.1. The matching figures for AFIIFWVHR: 0.3 and 0.3.

On to IFWVQRGAK [Synthetic peptide …, listing 2 of 2 here], for which the In Vitro Score (score, % of positive control peptide) was found to be 61.3 in assay [1] and 0.2 in assay [2]. The matching figures for WVKRGHKKL [Synthetic peptide …, listing 2 of 2 here]: 2.8 and 47.6.

For WVKRGNKKL […, listing 2 of 2 here], the In Vitro Score (% of positive control peptide) with HLA-A*02:01 (human) was 2.4; in the assay with HLA-A*03:01 (human), 0.9.

These data come from US20200297760A1, “COMPOSITIONS AND METHODS FOR REDUCING IMMUNE RESPONSES AGAINST CHIMERIC ANTIGEN RECEPTORS” (Juno Therapeutics, Inc., priority 2015, published 2020).
